Source: US6451759 (University of California, dated 2002)

Molecular target: T1, Fas on Jurkat T cells (human, UniProt P25445 26-335)
T1 sequence (looked up): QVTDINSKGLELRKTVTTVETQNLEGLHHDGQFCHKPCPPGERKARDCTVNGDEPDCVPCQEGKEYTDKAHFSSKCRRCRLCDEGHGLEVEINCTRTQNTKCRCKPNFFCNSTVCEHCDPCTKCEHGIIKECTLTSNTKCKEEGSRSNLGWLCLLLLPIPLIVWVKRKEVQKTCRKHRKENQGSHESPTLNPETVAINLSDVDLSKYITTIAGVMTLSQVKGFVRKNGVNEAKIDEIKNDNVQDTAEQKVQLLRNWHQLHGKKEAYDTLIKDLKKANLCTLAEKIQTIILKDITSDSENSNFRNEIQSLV
Experiment: cell-based or functional assay

B1: deletion mutant 2 of human FasL (ligand)
chain: SQMHTASSLEKQIGHPSPPPEKKELRKVAHLTGKSN
percent specific 51Cr release from Jurkat target cells (cytotoxicity assay, transfected COS-7 effector cells): ~2 fold over wild-type FasL
